33 molecules from patent US20210145976A1 (ARO BIOTHERAPEUTICS, published 2021) can be followed below.

Assay [1] deals with T1, recombinant biotinylated CD71 extracellular domain (Sino Biologics) with an N-terminal 6His tag (human, UniProt P02786 89-760, biotinylated (sites not given)).
T1 construct: extracellular domain; also called hCD71; huCD71
Description: screening ELISA, ratio. (An ELISA detects its analyte on a solid surface through an enzyme-linked reagent.)

Assay [2] has as its target T1, recombinant biotinylated CD71 …. Nature of the assay: screening ELISA.

T1 sequence (P02786 other isoform, or with tags, fused parts or gaps): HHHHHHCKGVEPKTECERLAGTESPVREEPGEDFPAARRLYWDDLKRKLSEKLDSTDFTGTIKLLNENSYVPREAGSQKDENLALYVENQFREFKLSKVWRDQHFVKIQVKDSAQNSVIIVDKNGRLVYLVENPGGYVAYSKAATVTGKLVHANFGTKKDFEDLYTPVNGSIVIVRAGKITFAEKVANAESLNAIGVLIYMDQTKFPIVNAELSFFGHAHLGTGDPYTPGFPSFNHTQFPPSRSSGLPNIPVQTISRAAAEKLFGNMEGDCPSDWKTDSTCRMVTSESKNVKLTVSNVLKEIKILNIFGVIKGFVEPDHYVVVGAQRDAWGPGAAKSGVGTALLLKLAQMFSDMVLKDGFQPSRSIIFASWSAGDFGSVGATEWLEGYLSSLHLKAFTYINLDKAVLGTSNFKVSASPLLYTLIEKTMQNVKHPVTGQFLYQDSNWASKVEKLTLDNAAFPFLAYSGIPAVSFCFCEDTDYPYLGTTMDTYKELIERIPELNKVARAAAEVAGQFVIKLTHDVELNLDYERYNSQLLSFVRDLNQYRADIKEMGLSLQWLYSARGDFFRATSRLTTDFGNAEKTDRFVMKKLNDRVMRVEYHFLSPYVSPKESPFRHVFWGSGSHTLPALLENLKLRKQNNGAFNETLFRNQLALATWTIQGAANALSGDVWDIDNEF

B1: SEQ ID NO 240 (designed binder)
chain: MLPAPKNLVVSRVTEDSARLSWTAPDAAFDSFRIKYLEWWLGGEAIVLTVPGSERSYDLTGLKPGTEYWVDIQGVKGGVLSWPLSAIFTT
notes: FN3 domain
For B1, the “hCD71:HSA” value in assay [1] was 1480. For the same molecule, in assay [2], the hCD71 was determined as 3.03e+06.

B2: SEQ ID NO 279 (designed binder)
chain: MLPAPKNLVVSRVTEDSARLSWTAPDAAFDSFSIEYYESVGLGEAIVLTVPGSERSYDLTGLKPGTEYDVSIYGVKGGYLSRPLSAIFTT
notes: FN3 domain
In the case of B2, the “hCD71:HSA” value in assay [1] came to 1300. Further, in assay [2], the hCD71 came to 4.09e+06.

B3: SEQ ID NO 287 (designed binder)
chain: MLPAPKNLVVSRVTEDSARLSWTAPDAAFDSFTIEYHESGPVGEAIVLTVPGSERSYDLTGLKPGTEYMVWIFGVKGGFVSRPLSAIFTT
notes: FN3 domain
B3: in assay [1], the “hCD71:HSA” value was 706. Besides, the hCD71 in assay [2] was 3.88e+06.

B4: SEQ ID NO 245 (designed binder)
chain: MLPAPKNLVVSRITEDSARLSWTAPDAAFDSFGIAYNEGDHYGEAIVLTVPGSERSYDLTGLKPGTEYSVWIEGVKGGNLSYPLSAIFTT
notes: FN3 domain
B4: in assay [1], the “hCD71:HSA” value was 903. In assay [2], the hCD71 worked out at 2.62e+06.

B5: SEQ ID NO 304 (designed binder)
chain: MLPAPKNLVVSRVTEDSARLSWTAPDAAFDSFIITYWEHVGDGEAIVLTVPGSERSYDLTGLKPGTEYFVEIYGVKGGYLSKPLSAIFTT
notes: FN3 domain
For B5, the “hCD71:HSA” value in assay [1] turned out to be 1240. Moreover, in assay [2], the hCD71 is 3.34e+06.

B6: SEQ ID NO 243 (designed binder)
chain: MLPAPKNLVVSRVTEDSARLSWTAPDAAFDSFAIPYYEWVNHGEAIVLTVPGSERSYDLTGLKPGTEYPVGIDGVKGGGPSWPLSAIFTT
notes: FN3 domain
Take B6: the “hCD71:HSA” value in assay [1] stood at 237. Moreover, the hCD71 in assay [2] was determined as 2.4e+06.

B7: SEQ ID NO 271 (designed binder)
chain: MLPAPKNLVVSRVTEDSARLSWTAPDAAFDSFYIPYAETRDDGEAIVLTVPGSERSYDLTGLKPGTEYSVLIHGVKGGDLSSPLSAIFTT
notes: FN3 domain
As for B7, the “hCD71:HSA” value in assay [1] turned out to be 693. Besides, the hCD71 in assay [2] came out at 2.11e+06.

B8: SEQ ID NO 298 (designed binder)
chain: MLPAPKNLVVSRVTEDSARLSWTAPDAAFDSFPIAYAEPRPDGEAIVLTVPGSERSYDLTGLKPGTEYSVLIHGVKGGLLSSPLSAISTT
notes: FN3 domain
Regarding B8, the “hCD71:HSA” value in assay [1] worked out at 74. In addition, the hCD71 in assay [2] was determined as 2.51e+06.

B9: SEQ ID NO 276 (designed binder)
chain: MLPAPKNLVVSRVTEDSARLSWTAPDAAFDSFRIDYLELTSLGEAIVLTVPGSERSYDLTGLKPGTEYPVPILGVKGGLSSWPLSAIFTT
notes: FN3 domain
On to B9, for which the “hCD71:HSA” value in assay [1] was found to be 58. The hCD71 in assay [2] came out at 720000.

B10: SEQ ID NO 283 (designed binder)
chain: MLPAPKNLVVSRVTEDSARLSWTAPDAAFDSFPIAYAEPRPDGEAIVLTVPGSERSYDLTGLKPGTEYSVLIHGVKGGLLSSPLSAIFTT
notes: FN3 domain
With B10, the “hCD71:HSA” value in assay [1] came to 472. Besides, the hCD71 in assay [2] stood at 2.95e+06.

B11: SEQ ID NO 258 (designed binder)
chain: MLPAPKNLVVSRVTEDSARLSWTAPDAAFDSFFIPYAEPSPTGEAIVLTVPGSERSYDLTGLKPGTEYDVWIEGVKGGVLSWPLSAIFTT
notes: FN3 domain
B11: in assay [1], the “hCD71:HSA” value turned out to be 98. Moreover, the hCD71 in assay [2] worked out at 1.04e+06.

B12: SEQ ID NO 264 (designed binder)
chain: MLPAPKNLVVSRVTEDSARLSWTAPDAAFDSFRIKYQEWWVEGEAIVLTVPGSERSYDLTGLKPGTEYVVQIAGVKGGLSSYPLSAIFTT
notes: FN3 domain
In the case of B12, in assay [1], the “hCD71:HSA” value was found to be 1170. Further, the hCD71 in assay [2] came out at 2.98e+06.

B13: SEQ ID NO 282 (designed binder)
chain: MLPAPKNLVVSRVTEDSARLSWTAPDAAFDSFAIVYHEPRPDGEAIVLTVPGSERSYDLTGLKPGTEYEVVILGVKGGVHSYPLSAIFTT
notes: FN3 domain
Take B13: in assay [1], the “hCD71:HSA” value was 206. The hCD71 in assay [2] was found to be 3.85e+06.

B14: SEQ ID NO 246 (designed binder)
chain: MLPAPKNLVVSRVTEDSARLSWTAPDAAFDSFTIAYNEQNHYGEAIVLTVPGSERSYDLTGLKPGTEYGVWIEGVKGGTLSWPLSAIFTT
notes: FN3 domain
For B14, the “hCD71:HSA” value in assay [1] was found to be 1120. Moreover, the hCD71 in assay [2] was 1.57e+06.

B15: SEQ ID NO 262 (designed binder)
chain: MLPAPKNLVVSRVTEDSARLSWTAPDAAFDSFAIEYFEYTGEGEAIVLTVPGSERSYDLTGLKPGTEYYVGIYGVKGGYLSRPLSAIFTT
notes: FN3 domain
For the molecule B15, the “hCD71:HSA” value in assay [1] turned out to be 1860. In addition, the hCD71 in assay [2] is 4.38e+06.

B16: SEQ ID NO 263 (designed binder)
chain: MLPAPKNLVVSRVTEDSARLSWTAPDAAFDSFFIGYLEPQPPGEAIVLTVPGSERSYDLTGLKPGTEYNVTIQGVKGGFPSMPLSAISTT
notes: FN3 domain
B16: the “hCD71:HSA” value in assay [1] is 92. In addition, in assay [2], the hCD71 was found to be 1.88e+06.

B17: SEQ ID NO 288 (designed binder)
chain: MLPAPKNLVVSRVTEDSARLSWTAPDAAFDSFLIPYAETSPSGEAIVLTVPGSERSYDLTGLKPGTEYSVLIHGVKGGDYSSPLSAISTT
notes: FN3 domain
Regarding B17, the “hCD71:HSA” value in assay [1] is 16. For the same molecule, the hCD71 in assay [2] is 659000.

B18: SEQ ID NO 268 (designed binder)
chain: MLPAPKNLVVSRVTEDSARLSWTAPDAAFDSFTIVYGEAGAFGEAIVLTVPGSERSYDLTGLKPGTEYDVLIEGVKGGNLSWPLSAIFTT
notes: FN3 domain
In the case of B18, the “hCD71:HSA” value in assay [1] is 626. For the same molecule, the hCD71 in assay [2] is 1.6e+06.

B19: SEQ ID NO 272 (designed binder)
chain: MLPAPKNLVVSRVTEDSARLSWTAPDAAFDSFGIPYAESTPTGEAIVLTVPGSERSYDLTGLKPGTEYSVLIHGVKGGHLSDPLSAIFTT
notes: FN3 domain
Turning to B19, the “hCD71:HSA” value in assay [1] is 199. For the same molecule, the hCD71 in assay [2] came out at 1.78e+06.

B20: SEQ ID NO 265 (designed binder)
chain: MLPAPKNLVVSRVTEDSARLSWTAPDAAFDSFWIYYIETSHQGEAIVLTVPGSERSYDLTGLKPGTEYFVLIKGVKGGYDSVPLSAIFTT
notes: FN3 domain
As for B20, the “hCD71:HSA” value in assay [1] is 913. Further, in assay [2], the hCD71 stood at 3.61e+06.

B21: SEQ ID NO 275 (designed binder)
chain: MLPAPKNLVVSRVTEDSARLSWTAPDAAFDSFLIAYAEVTLHGEAIVLTVPGSERSYDLTGLKPGTEYSVLIHGVKGGRNSDPLSAIFTT
notes: FN3 domain
In the case of B21, the “hCD71:HSA” value in assay [1] was determined as 591. The hCD71 in assay [2] came to 2.25e+06.

B22: SEQ ID NO 267 (designed binder)
chain: MLPAPKNLVVSRVTEDSARLSWTAPDAAFDSFPIVYSEIHVIGEAIVLTVPGSERSYDLTGLKPGTEYDVWIEGVKGGHLSEPLSAIFTT
notes: FN3 domain
Regarding B22, the “hCD71:HSA” value in assay [1] was 166. Further, the hCD71 in assay [2] came out at 1.97e+06.

B23: SEQ ID NO 251 (designed binder)
chain: MLPAPKNLVVSRVTEDSARLSWTAPDAAFDSFFIGYLEPQPPGEAIVLTVPGSERSYDLTGLKPGTEYNVTIQGVKGGFPSMPLSAIVTT
notes: FN3 domain
For the molecule B23, the “hCD71:HSA” value in assay [1] turned out to be 284. Further, the hCD71 in assay [2] came out at 2.74e+06.

B24: SEQ ID NO 250 (designed binder)
chain: MLPAPKNLVVSRVTEDSARLSWTAPDAAFDSFFIGYLEPYPPGEAIVLTVPGSERSYDLTGLKPGTEYAVEIAGVKGGLLSSPLSAISTT
notes: FN3 domain
As for B24, in assay [1], the “hCD71:HSA” value was 58. Besides, the hCD71 in assay [2] amounted to 1.09e+06.

B25: SEQ ID NO 254 (designed binder)
chain: MLPAPKNLVVSRVTEDSARLSWTAPDAAFDSFFIPYAEPSPTGEAIVLTVPGSERSYDLTGLKPGTEYSVLIHGVKGGHLSDPLSAISTT
notes: FN3 domain
On to B25, for which, in assay [1], the “hCD71:HSA” value was determined as 36. For the same molecule, the hCD71 in assay [2] came to 3.24e+06.

B26: SEQ ID NO 305 (designed binder)
chain: MLPAPKNLVVSRVTEDSARLSWTAPDAAFDSFEIDYDEPFVYGEAIVLTVPGSERSYDLTGLKPGTEYRVFIFGVKGGNGSWPLSAIFTT
notes: FN3 domain
As to B26, the “hCD71:HSA” value in assay [1] was 48. Besides, the hCD71 in assay [2] amounted to 1.21e+06.

B27: SEQ ID NO 255 (designed binder)
chain: MLPAPKNLVVSRVTEDSARLSWTAPDAAFDSFDIEYYELIGRGEAIVLTVPGSERSYDLTGLKPGTEYWVGIYGVKGGWLSRPLSAIFTT
notes: FN3 domain
As for B27, in assay [1], the “hCD71:HSA” value worked out at 403. Further, the hCD71 in assay [2] came to 1.84e+06.

B28: SEQ ID NO 295 (designed binder)
chain: MLPAPKNLVVSRVTEDSARLSWTAPDAAFDSFFIGYLEPIPSGEAIVLTVPGSERSYDLTGLKPGTEYPVVIQGVKGGHPSQPLSAIFTT
notes: FN3 domain
Regarding B28, the “hCD71:HSA” value in assay [1] was determined as 891. Also, the hCD71 in assay [2] was 3.38e+06.

B29: SEQ ID NO 289 (designed binder)
chain: MLPAPKNLVVSRVTEDSARLSWTAPDAAFDSFAIPYYEDTNDGEAIVLTVPGSERSYDLTGLKPGTEYWVSIQGVKGGTVSGPLSAIFTT
notes: FN3 domain
Regarding B29, the “hCD71:HSA” value in assay [1] stood at 1060. In addition, in assay [2], the hCD71 came to 2.27e+06.

B30: SEQ ID NO 293 (designed binder)
chain: MLPAPKNLVVSRVTEDSARLSWTAPDAAFDSFTIEYWEFTGSGEAIVLTVPGSERSYDLTGLKPGTEYDVSIYGVKGGWLSYPLSAIFTT
notes: FN3 domain
On to B30, for which the “hCD71:HSA” value in assay [1] came to 520. Besides, the hCD71 in assay [2] turned out to be 3.59e+06.

B31: SEQ ID NO 300 (designed binder)
chain: MLPAPKNLVVSRVTEDSARLSWTAPDAAFDSFFIGYLEPQPPGEAIVLTVPGSERSYDLTGLKPGTEYNVTIHGVKGGTPSMPLSAIFTT
notes: FN3 domain
For the molecule B31, the “hCD71:HSA” value in assay [1] was found to be 571. For the same molecule, the hCD71 in assay [2] amounted to 2.31e+06.

B32: SEQ ID NO 285 (designed binder)
chain: MLPAPKNLVVSRVTEDSARLSWTAPDAAFDSFLIPYAETSPSGEAIVLTVPGSERSYDLTGLKPGTEYSVLIHGVKGGDYSSPLSAIFTT
notes: FN3 domain
Take B32: the “hCD71:HSA” value in assay [1] came to 1110. The hCD71 in assay [2] is 2.44e+06.

B33: SEQ ID NO 256 (designed binder)
chain: MLPAPKNLVVSRVTEDSARLSWTAPDAAFDSFHIVYHEPRPSGEAIVLTVPGSERSYDLTGLKPGTEYEVGIVGVKGGDLSVPLSAIFTT
notes: FN3 domain
As to B33, the “hCD71:HSA” value in assay [1] worked out at 900. In addition, the hCD71 in assay [2] amounted to 1.98e+06.
